According to PMC7076219:

How the values were obtained:
[1] = molecular target: CD44/HCELL (hematopoietic cell E- and/or L-selectin ligand) (human (endogenous in KG1a)) (UniProt P16070); experiment: SPR; Biacore T-100, CM5 chip, 25 °C; CD44/HCELL captured from KG1a lysate by immobilised Hermes-3; E-selectin proteins injected in sequential concentrations at 20 ul/min, 90 s each; running buffer 50 mM Tris pH 8.0, 1% Triton X-100, 50 mM NaCl, 1 mM CaCl2; isotype control subtracted; kon calculated from KD and koff
[2] = molecular target: ligands on KG1a cells (human (endogenous in KG1a)); experiment: flow cytometry on cells; KG1a cells stained with 10 ug/ml E-selectin protein in HBSS with 5% FBS and 2 mM CaCl2, 4 °C, 20 min; detected by Strep-tag II mAb and PE anti-mouse IgG1
[3] = molecular target: E-S6-IgG (mouse E-selectin extracellular region fused to the Fc region of human IgG1, from silkworm) (mouse | human) (UniProt Q00690); experiment: native gel or EMSA; purified E-selectin proteins in native PAGE sample buffer on a 10% TBE gel, Tris-glycine buffer, Coomassie stain

Sequence of CD44/HCELL (hematopoietic cell E- and/or L-selectin ligand) (human (endogenous in KG1a)) (P16070 other isoform, or with tags, fused parts or gaps): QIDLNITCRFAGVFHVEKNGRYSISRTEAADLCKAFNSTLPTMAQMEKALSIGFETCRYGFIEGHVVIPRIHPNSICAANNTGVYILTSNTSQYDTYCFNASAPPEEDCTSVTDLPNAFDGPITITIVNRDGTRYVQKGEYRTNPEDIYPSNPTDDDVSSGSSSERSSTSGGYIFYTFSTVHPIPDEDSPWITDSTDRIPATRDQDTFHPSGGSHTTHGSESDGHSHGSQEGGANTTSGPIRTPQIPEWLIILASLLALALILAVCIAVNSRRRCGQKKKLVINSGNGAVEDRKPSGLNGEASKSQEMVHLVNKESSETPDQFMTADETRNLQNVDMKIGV

Kd [1]	kon [1]	percent of the live KG1a population bound [2]	fluorescence signal, fold lower than E-S6 [2]	fluorescence signal (geometric mean) [2]	Substance	stoichiometry N [3]
17.2 µM	4 M⁻¹ s⁻¹	43%			E-S0 (mouse E-selectin lectin and EGF domains, no SCR domains) (domain or fragment)	
5.68 µM	30 M⁻¹ s⁻¹	76%	3 fold		E-S2 (truncated mouse E-selectin with only the first two SCR domains) (domain or fragment)	
2.5 µM	80 M⁻¹ s⁻¹	84%	2 fold	1690	E-S2-A28H (E-S2 with the A28H mutation in the lectin domain) (domain or fragment)	

Substance	Kd [1]	kon [1]	percent of the live KG1a population bound [2]	fluorescence signal, fold lower than E-S6 [2]	fluorescence signal (geometric mean) [2]	stoichiometry N [3]
E-S6-IgG (mouse E-selectin extracellular region fused to the Fc region of human IgG1, from silkworm) (from UniProt Q00690 22-557) (Fc fusion)	0.17 µM	950 M⁻¹ s⁻¹	96%			2
